For the assay, the target named is T1, Full-length human CTGF (human, UniProt P29279 27-349).
T1 construct: Corresponds to NCBI NP_001892.1 with the signal peptide omitted; purchased from R&D Systems; also called hCTGF full length; full length CTGF
T1 sequence: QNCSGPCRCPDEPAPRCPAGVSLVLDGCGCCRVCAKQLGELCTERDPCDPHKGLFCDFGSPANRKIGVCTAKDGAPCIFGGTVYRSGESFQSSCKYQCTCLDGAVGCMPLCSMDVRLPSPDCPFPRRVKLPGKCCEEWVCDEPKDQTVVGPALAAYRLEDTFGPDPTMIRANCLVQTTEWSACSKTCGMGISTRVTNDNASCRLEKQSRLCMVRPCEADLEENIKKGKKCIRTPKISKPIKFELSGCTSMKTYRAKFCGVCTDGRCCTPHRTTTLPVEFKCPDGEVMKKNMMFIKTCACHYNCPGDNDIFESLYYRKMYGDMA
Put plainly: SPR, full length CTGF.

Where a chain is given by its changes, count along the chain named.

B1: A21 (antibody, human IgG1, kappa, L234A L235A)
light: VVMTQTPLSLSVSLGDQASISCKSSQSIVHYNGKTYLEWYLQKPGQSPQLLIYKVSSRFSGVPDRFSGSGSGTDFTLKISRVEAEDLGVYYCFQGSHFPLTFGQGTKLEIKRTVAAPSVFIFPPSDEQLKSGTASVVCLLNNFYPREAKVQWKVDNALQSGNSQESVTEQDSKDSTYSLSSTLTLSKADYEKHKVYACEVTHQGLSSPVTKSFNRGEC
heavy: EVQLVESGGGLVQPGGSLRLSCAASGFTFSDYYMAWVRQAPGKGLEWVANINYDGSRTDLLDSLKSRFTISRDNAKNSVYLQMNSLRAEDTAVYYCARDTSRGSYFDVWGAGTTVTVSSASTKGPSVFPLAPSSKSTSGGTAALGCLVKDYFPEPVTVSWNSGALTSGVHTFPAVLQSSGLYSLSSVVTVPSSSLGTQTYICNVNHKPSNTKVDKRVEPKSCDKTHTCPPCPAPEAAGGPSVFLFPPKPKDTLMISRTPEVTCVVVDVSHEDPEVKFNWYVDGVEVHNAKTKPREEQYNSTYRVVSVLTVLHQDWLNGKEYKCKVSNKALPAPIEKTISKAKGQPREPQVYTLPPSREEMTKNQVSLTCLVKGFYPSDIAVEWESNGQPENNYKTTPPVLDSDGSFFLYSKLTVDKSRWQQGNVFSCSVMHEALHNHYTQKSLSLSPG
The molecule B1 displayed a dissociation constant Kd of 250 pM.

B2: A49 (antibody, human IgG1, kappa, L234A L235A, V domains shown)
VH: EVQLVESGGGLVQPGGSLRLSCAASGFTFSDYYMAWVRQAPGKGLEWVANINYEGSRTDLLESLKSRFTISRDNAKNSVYLQMNSLRAEDTAVYYCARDTSRGSYFDVWGAGTTVTVSS
VL: VVMTQTPLSLPVSLGDQASISCRSSQSIVHYNENTYLEWYLQKPGQSPQLLIYKVSNRFSGVPDRFSGSGSGTDFTLKISRVEAEDLGVYYCFQGSHFPLTFGQGTKLEIKR
Turning to B2, the Kd worked out at 300 pM.

B3: A41 (antibody, human IgG1, kappa, L234A L235A, V domains shown)
VH: B2 VH
VL: B2 VL with P11S, R23K, N57S, F59A
B3: binding was put at a Kd of 190 pM.

B4: A45 (antibody, human IgG1, kappa, L234A L235A)
light: B1 light with G33E, K34N, F59A
heavy: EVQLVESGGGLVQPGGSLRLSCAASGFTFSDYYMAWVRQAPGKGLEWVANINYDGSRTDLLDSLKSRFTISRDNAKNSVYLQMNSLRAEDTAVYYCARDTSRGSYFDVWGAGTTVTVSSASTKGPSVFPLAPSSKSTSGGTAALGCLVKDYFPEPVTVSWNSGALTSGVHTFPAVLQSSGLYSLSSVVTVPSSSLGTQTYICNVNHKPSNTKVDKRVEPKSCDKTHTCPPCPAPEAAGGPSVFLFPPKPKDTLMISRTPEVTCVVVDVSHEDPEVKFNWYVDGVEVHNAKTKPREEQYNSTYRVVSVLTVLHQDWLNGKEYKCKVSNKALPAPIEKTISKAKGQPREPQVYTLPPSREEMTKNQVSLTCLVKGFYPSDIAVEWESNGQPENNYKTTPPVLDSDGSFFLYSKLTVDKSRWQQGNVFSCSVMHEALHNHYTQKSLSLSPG
For the molecule B4, the binding result is given as “no binding”.

B5: A55 (antibody, human IgG1, kappa, L234A L235A, V domains shown)
VH: B2 VH with E54D
VL: B2 VL
As to B5, the Kd was 350 pM. That is a sub-nanomolar value.

B6: A47 (antibody, human IgG1, kappa, L234A L235A, V domains shown)
VH: B2 VH with E54D
VL: B2 VL with P11S, R23K, N57S, F59A
Take B6: the binding result was “no binding”.

B7: A36 (antibody, human IgG1, kappa, L234A L235A, V domains shown)
VH: B2 VH with E54Y, E62A
VL: B2 VL with P11S, R23K, N57S
For B7, the binding result is “no binding”.

B8: A56 (antibody, human IgG1, kappa, L234A L235A)
light: B1 light with S11P, K23R, G33E, K34N, S57N
heavy: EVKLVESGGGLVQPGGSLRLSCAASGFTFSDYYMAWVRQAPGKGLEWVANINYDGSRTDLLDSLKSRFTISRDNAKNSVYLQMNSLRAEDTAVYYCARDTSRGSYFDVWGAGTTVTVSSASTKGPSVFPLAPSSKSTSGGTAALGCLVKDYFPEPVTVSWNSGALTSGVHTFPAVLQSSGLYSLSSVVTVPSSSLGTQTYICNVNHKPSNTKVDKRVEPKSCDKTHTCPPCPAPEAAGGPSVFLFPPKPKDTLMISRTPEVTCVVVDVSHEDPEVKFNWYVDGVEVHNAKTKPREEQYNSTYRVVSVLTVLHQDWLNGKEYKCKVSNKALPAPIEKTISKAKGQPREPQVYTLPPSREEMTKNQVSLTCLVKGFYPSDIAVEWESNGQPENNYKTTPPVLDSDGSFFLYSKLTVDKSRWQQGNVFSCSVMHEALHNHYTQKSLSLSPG
For the molecule B8, the Kd stood at 310 pM.

B9: A54 (antibody, human IgG1, kappa, L234A L235A, V domains shown)
VH: B2 VH with E62D
VL: B2 VL
B9 gave a Kd of 310 pM.

B10: A60 (antibody, human IgG1, kappa, L234A L235A, V domains shown)
VH: B2 VH with E54Y, E62A
VL: B2 VL with E33A
Regarding B10, binding was put at a Kd of 300 pM.

B11: A37 (antibody, human IgG1, kappa, L234A L235A, V domains shown)
VH: B2 VH with E54D, E62D
VL: B2 VL with P11S, R23K, N57S
Regarding B11, the binding result is listed as “no binding”.

B12: A23 (antibody, human IgG1, kappa, L234A L235A, V domains shown)
VH: B2 VH with E54D
VL: B2 VL with P11S, R23K, E33G, N34K, N57S
B12 registered a Kd of 230 pM.

B13: A46 (antibody, human IgG1, kappa, L234A L235A, V domains shown)
VH: B2 VH with E62D
VL: B2 VL with P11S, R23K, N57S, F59A
B13 returned a Kd of 200 pM.

B14: A25 (antibody, human IgG1, kappa, L234A L235A, V domains shown)
VH: B2 VH
VL: B2 VL with P11S, R23K, E33G, N34K, N57S, F59A
In turn, B14 registered a Kd of 150 pM.

B15: A59 (antibody, human IgG1, kappa, L234A L235A, V domains shown)
VH: B2 VH with E62A
VL: B2 VL with E33A
The molecule B15 came in with a Kd of 270 pM.

B16: A52 (antibody, human IgG1, kappa, L234A L235A, V domains shown)
VH: B2 VH with E54Y, E62A
VL: B2 VL
Molecule B16 yielded a Kd of 270 pM.

B17: A51 (antibody, human IgG1, kappa, L234A L235A, V domains shown)
VH: B2 VH with E62A
VL: B2 VL
Regarding B17, the Kd is 250 pM.

B18: A44 (antibody, human IgG1, kappa, L234A L235A, V domains shown)
VH: B2 VH with E54Y, E62A
VL: B2 VL with P11S, R23K, N57S, F59A
B18 came in with a Kd of 160 pM.

B19: A34 (antibody, human IgG1, kappa, L234A L235A, V domains shown)
VH: B2 VH with E54Y
VL: B2 VL with P11S, R23K, N57S
As for B19, the binding result is “no binding”.

B20: A43 (antibody, human IgG1, kappa, L234A L235A, V domains shown)
VH: B2 VH with E62A
VL: B2 VL with P11S, R23K, N57S, F59A
For B20, the Kd is 150 pM. This counts as sub-nanomolar.

B21: A48 (antibody, human IgG1, kappa, L234A L235A)
light: B1 light with G33E, K34N, F59A
heavy: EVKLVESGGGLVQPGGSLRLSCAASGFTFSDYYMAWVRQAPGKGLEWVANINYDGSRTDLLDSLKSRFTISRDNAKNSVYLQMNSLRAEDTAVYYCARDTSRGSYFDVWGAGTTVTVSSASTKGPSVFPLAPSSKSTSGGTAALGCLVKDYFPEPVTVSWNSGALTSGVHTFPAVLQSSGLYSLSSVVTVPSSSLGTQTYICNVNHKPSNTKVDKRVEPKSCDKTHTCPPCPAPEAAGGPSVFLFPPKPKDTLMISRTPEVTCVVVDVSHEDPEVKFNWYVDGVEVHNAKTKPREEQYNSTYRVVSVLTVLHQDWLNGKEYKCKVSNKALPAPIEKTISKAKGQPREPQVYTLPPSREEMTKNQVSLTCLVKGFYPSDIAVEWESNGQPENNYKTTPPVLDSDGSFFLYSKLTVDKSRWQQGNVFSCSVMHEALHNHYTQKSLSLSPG
On to B21, for which the affinity, expressed as Kd, was 230 pM.

B22: A53 (antibody, human IgG1, kappa, L234A L235A)
light: B1 light with S11P, K23R, G33E, K34N, S57N
heavy: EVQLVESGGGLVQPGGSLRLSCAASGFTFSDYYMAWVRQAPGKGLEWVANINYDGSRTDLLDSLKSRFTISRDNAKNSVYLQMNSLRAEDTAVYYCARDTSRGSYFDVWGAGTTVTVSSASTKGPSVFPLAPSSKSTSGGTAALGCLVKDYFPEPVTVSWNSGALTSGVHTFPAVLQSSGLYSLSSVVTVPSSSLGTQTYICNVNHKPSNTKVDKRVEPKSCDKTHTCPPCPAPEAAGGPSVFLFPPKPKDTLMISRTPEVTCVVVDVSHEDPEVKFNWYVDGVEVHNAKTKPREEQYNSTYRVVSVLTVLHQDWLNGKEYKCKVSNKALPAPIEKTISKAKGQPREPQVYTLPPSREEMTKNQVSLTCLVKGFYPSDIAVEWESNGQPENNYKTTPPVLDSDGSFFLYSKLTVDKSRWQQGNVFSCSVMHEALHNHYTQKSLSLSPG
In turn, B22 yielded a Kd of 360 pM. This Kd is about 1.6-fold higher than that of the molecule before.

B23: A22 (antibody, human IgG1, kappa, L234A L235A, V domains shown)
VH: B2 VH with E62D
VL: B2 VL with P11S, R23K, E33G, N34K, N57S
Consider B23, for which the Kd was 210 pM.

B24: A57 (antibody, human IgG1, kappa, L234A L235A, V domains shown)
VH: B2 VH
VL: B2 VL with E33A
On to B24, for which the Kd stood at 350 pM. This Kd lies about 1.7-fold higher than the previous one.

B25: A24 (antibody, human IgG1, kappa, L234A L235A)
light: B1 light
heavy: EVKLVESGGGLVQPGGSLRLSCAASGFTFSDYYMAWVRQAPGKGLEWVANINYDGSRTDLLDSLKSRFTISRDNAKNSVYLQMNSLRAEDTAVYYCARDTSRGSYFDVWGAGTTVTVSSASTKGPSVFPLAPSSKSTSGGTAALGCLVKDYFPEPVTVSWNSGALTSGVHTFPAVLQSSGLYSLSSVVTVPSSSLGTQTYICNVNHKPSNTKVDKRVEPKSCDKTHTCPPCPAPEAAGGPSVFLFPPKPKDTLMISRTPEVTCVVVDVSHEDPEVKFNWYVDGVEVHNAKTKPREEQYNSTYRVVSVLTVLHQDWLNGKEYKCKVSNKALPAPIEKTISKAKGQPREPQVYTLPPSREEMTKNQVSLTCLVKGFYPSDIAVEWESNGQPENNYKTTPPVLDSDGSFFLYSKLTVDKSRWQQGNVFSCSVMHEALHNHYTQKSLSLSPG
B25 gave a Kd of 230 pM.

B26: A42 (antibody, human IgG1, kappa, L234A L235A, V domains shown)
VH: B2 VH with E54Y
VL: B2 VL with P11S, R23K, N57S, F59A
As to B26, the affinity, expressed as Kd, was 150 pM.

B27: A50 (antibody, human IgG1, kappa, L234A L235A, V domains shown)
VH: B2 VH with E54Y
VL: B2 VL
For B27, binding was characterised by a dissociation constant (Kd) of 260 pM.

B28: A58 (antibody, human IgG1, kappa, L234A L235A, V domains shown)
VH: B2 VH with E54Y
VL: B2 VL with E33A
Molecule B28 yielded a Kd of 300 pM.

B29: A35 (antibody, human IgG1, kappa, L234A L235A, V domains shown)
VH: B2 VH with E62A
VL: B2 VL with P11S, R23K, N57S
Consider B29, for which the binding result is given as “no binding”.
